Assay results from patent publication EP1922329B1.

Target: human rhinovirus serotype HRV-39
Experiment: cell-based or functional assay

soluble ICAM-1 (from UniProt P05362 28-480) (receptor)
IC50, CPE assay: 1.35 µg/mL

IC1-5D/IgA (ICAM/IgA fusion, gift of Dr. Tim Springer; Martin, et al., 1993) (Fc fusion)
IC50, CPE assay: 0.12 µg/mL
fold lower IC50 than soluble ICAM-1, CPE assay: 11.3 fold
